Patent US20230322924A1 (Janssen / Centocor, published 2023)

What was measured:
Test in all cases: cell-based or functional assay
[1] = target: Cyno CD3e (cynomolgus monkey, UniProt Q95LI5 22-198)
[2] = target: Cyno CD33 full length (cynomolgus monkey)
[3] = target: T1, Human CD33 full length (human, UniProt P20138 18-364)
[4] = target: T1, Human CD33 full length; remark: listed apart in the source
[5] = target: human IL1RAP on NCI-H1975 cells (human)
[6] = target: T2, human IL1RAP (interleukin-1 receptor accessory protein) on LAMA-84 cells (human)
[7] = target: T2, human IL1RAP (interleukin-1 receptor …); remark: listed apart in the source

T1 sequence (P20138 18-364 limits assumed): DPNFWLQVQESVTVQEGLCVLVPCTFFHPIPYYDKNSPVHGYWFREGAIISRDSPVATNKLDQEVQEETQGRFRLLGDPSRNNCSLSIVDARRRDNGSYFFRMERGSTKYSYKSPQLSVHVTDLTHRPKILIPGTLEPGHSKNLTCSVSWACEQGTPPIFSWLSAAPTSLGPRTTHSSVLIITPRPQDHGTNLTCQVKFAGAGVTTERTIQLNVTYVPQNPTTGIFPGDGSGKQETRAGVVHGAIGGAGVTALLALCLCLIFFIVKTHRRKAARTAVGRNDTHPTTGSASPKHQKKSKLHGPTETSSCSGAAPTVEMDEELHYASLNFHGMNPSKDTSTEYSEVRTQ
Cyno CD3e, sequence (Q95LI5 22-198): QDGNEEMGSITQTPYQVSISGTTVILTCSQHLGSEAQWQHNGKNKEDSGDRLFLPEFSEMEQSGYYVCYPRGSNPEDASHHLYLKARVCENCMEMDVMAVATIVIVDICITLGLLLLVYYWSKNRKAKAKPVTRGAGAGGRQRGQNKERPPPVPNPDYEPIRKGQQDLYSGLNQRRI

B1: C3CB88 (bispecific antibody, IgG4, V domains shown)
VH 1: EVQLVESGGGLVQPGRSLRLSCAASGFTFDDYAMHWVRQAPGKGLEWVSGIGWSGGSIVYADSVKGRFTISRDNAKNSLYLQMNSLRAEDTALYYCAKDSPYGDFFDYWGQGTLVTVSS
VL 1: DIVMTQSPDSLAVSLGERATINCKSSQTVFYSSNNKNYLAWYQQKPGQPPKLLISWASTRKSGVPDRFSGSGSGTDFTLTVSSLQAEDVAVYYCQHYYSTPYTFGQGTKLEIK
VH 2: EVQLVESGGGLVQPGGSLRLSCAASGFTFNTYAMNWVRQAPGKGLEWVARIRSKYNNYATYYAASVKGRFTISRDDSKNSLYLQMNSLKTEDTAVYYCARHGNFGNSYVSWFAYWGQGTLVTVSS
VL 2: QTVVTQEPSLTVSPGGTVTLTCRSSTGAVTTSNYANWVQQKPGQAPRGLIGGTNKRAPGTPARFSGSLLGGKAALTLSGVQPEDEAEYYCALWYSNLWVFGGGTKLTVL
[1]
  T cell activation EC50: 0.02 nM
[2]
  CD33^+ CD14^+ Killing EC50: 0.89 nM
[3]
  CD33^+ CD14^+ Killing EC50: 0.506 nM
  MOLM13 Killing EC50: 0.671 nM
[4]
  Primary AML Cell Killing EC50: 0.672 nM

B2: IC3B34 (bispecific antibody, human IgG4 S228P, kappa, F234A L235A)
heavy: not shown
light: DIQLTQSPSFLSASVGDRVTITCRASQGISSYLAWYQQKPGKAPKLLIYAASTLQSGVPSRFSGSGSGTEFTLTISSLQPEDFATYYCQQVNSYPLTFGGGTKVEIKRTVAAPSVFIFPPSDEQLKSGTASVVCLLNNFYPREAKVQWKVDNALQSGNSQESVTEQDSKDSTYSLSSTLTLSKADYEKHKVYACEVTHQGLSSPVTKSFNRGEC
VH: QVQLQQSGPRLVRPSQTLSLTCAISGDSVFNNNAAWSWIRQSPSRGLEWLGRTYYRSKWLYDYAVSVKSRITVNPDTSRNQFTLQLNSVTPEDTALYYCARGYSSSFDYWGQGTLVTVSS
VL: QSALTQPASVSGSPGQSITISCTGTSSNIGTYKFVSWYQQHPDKAPKVLLYEVSKRPSGVSSRFSGSKSGNTASLTISGLQAEDQADYHCVSYAGSGTLLFGGGTKLTVL
[5]
  cytotoxicity EC50, caspase 3/7 assay, NCI-H1975 cells with pan T cells: 0.057 nM

B3: IC3B19 (IAPB57×CD3B219) IL1RAP×CD3 bispecific antibody (bispecific antibody, human IgG4 S228P, kappa, F234A L235A)
heavy: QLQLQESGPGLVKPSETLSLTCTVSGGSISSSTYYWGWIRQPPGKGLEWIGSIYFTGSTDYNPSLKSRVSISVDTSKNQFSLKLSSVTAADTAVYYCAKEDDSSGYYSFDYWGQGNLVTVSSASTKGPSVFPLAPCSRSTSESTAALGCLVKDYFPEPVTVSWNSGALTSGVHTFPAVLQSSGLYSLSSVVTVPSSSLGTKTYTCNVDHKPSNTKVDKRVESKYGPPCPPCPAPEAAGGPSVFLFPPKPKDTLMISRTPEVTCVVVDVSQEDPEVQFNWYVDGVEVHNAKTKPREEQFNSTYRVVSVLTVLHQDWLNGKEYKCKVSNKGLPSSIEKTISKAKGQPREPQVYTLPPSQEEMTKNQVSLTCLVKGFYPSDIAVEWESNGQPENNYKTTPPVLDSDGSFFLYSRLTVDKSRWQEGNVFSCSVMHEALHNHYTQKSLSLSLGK
light: B2 light
VH: B1 VH 2
VL: B1 VL 2
[6]
  T-cell Activation EC50 (nM) (CD25), LAMA-84 cell line, whole blood assay, 48 h: 4.24 nM
[7]
  Cytotoxicity EC50 (nM), LAMA-84 cell line, whole blood T cell cytotoxicity assay, 48 h: 2.1 nM

B4: IC3B34 (IAPB57×CD3B376) IL1RAP×CD3 bispecific antibody (bispecific antibody, human IgG4 S228P, kappa, lambda, F234A L235A)
heavy 1: not shown
light 1: B2 light
heavy 2: QVQLQQSGPRLVRPSQTLSLTCAISGDSVFNNNAAWSWIRQSPSRGLEWLGRTYYRSKWLYDYAVSVKSRITVNPDTSRNQFTLQLNSVTPEDTALYYCARGYSSSFDYWGQGTLVTVSSASTKGPSVFPLAPCSRSTSESTAALGCLVKDYFPEPVTVSWNSGALTSGVHTFPAVLQSSGLYSLSSVVTVPSSSLGTKTYTCNVDHKPSNTKVDKRVESKYGPPCPPCPAPEAAGGPSVFLFPPKPKDTLMISRTPEVTCVVVDVSQEDPEVQFNWYVDGVEVHNAKTKPREEQFNSTYRVVSVLTVLHQDWLNGKEYKCKVSNKGLPSSIEKTISKAKGQPREPQVYTLPPSQEEMTKNQVSLTCLVKGFYPSDIAVEWESNGQPENNYKTTPPVLDSDGSFLLYSKLTVDKSRWQEGNVFSCSVMHEALHNHYTQKSLSLSLGK
light 2: QSALTQPASVSGSPGQSITISCTGTSSNIGTYKFVSWYQQHPDKAPKVLLYEVSKRPSGVSSRFSGSKSGNTASLTISGLQAEDQADYHCVSYAGSGTLLFGGGTKLTVLGQPKAAPSVTLFPPSSEELQANKATLVCLISDFYPGAVTVAWKADSSPVKAGVETTTPSKQSNNKYAASSYLSLTPEQWKSHRSYSCQVTHEGSTVEKTVAPTECS
[6]
  T-cell Activation EC50 (nM) (CD25), LAMA-84 cell line, whole blood assay, 48 h: 7.83 nM
[7]
  Cytotoxicity EC50 (nM), LAMA-84 cell line, whole blood T cell cytotoxicity assay, 48 h: 2.76 nM
